The target of this test is T1, Nox1 (UniProt Q9Y5S8 1-564, limits assumed).
T1 sequence (looked up): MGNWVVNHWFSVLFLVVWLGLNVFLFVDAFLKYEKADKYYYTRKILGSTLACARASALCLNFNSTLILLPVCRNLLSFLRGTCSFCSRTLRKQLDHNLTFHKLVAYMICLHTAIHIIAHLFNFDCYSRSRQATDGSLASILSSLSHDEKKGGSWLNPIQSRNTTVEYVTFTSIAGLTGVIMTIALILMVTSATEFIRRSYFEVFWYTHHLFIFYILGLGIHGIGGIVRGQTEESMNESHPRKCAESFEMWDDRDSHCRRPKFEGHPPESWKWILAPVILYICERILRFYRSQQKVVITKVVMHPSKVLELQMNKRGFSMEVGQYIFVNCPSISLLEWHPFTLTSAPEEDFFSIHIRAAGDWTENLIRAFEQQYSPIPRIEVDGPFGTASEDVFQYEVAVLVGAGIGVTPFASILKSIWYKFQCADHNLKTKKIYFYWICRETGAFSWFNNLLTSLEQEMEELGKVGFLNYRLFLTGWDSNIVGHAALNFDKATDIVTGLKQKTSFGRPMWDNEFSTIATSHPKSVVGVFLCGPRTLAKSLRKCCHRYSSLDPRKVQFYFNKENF
Nature of the test: cell-based or functional assay.

As to H-EPVDALGKAKV-NH2 [NoxA1ds], the “inhibition of O2^- production by Nox1-transfected COS22 cells (SOD-inhibitable cytochrome c reduction), IC50” value came out at 19 nM.
